Assay results reported in patent publication US20120316071A1 (published 2012).
Residue numbers refer to the chain shown, from its start. Names and notes keep the numbering of the source.

B1: Fab VH1-46_IGHD6-6*01_IGHJ1*01 S102A/S103P/S104F/H111F (APFF) & L6_IGKJ1*01 (Fab, V domains shown)
VH: QVQLVQSGAEVKKPGASVKVSCKASGYTFTSYYMHWVRQAPGQGLEWMGIINPSGGSTSYAQKFQGRVTMTRDTSTSTVYMELSSLRSEDTAVYYCAREEYAPFSAEYFQFWGQGTLVTVSS
VL: not shown
notes: Fab made in E. coli; The constant parts (CH1 with His6 and Flag tags from plasmid A, kappa CL from plasmid C) are not added here; also called H:APFF & L:wt; APFF & parent
B2: Fab VH1-46_IGHD6-6*01_IGHJ1*01 S102A/S103P/S104F/H111F (APFF) & L6_IGKJ1*01 S31M (Fab, V domains shown)
VH: B1 VH
VL: EIVLTQSPATLSLSPGERATLSCRASQSVSMYLAWYQQKPGQAPRLLIYDASNRATGIPARFSGSGSGTDFTLTISSLEPEDFAVYYCQQRSNWPPWTFGQGTKVEIKR
notes: Fab made in E. coli; The constant parts (CH1 with His6 and Flag tags from plasmid A, kappa CL from plasmid C) are not added here; also called APFF & S31M
B3: Fab VH1-46_IGHD6-6*01_IGHJ1*01 S102A/S103P/S104F/H111F (APFF) & L6_IGKJ1*01 S31T (Fab, V domains shown)
VH: B1 VH
VL: B2 VL with M31T
notes: Fab made in E. coli; The constant parts (CH1 with His6 and Flag tags from plasmid A, kappa CL from plasmid C) are not added here; also called APFF & S31T
B4: Fab VH1-46_IGHD6-6*01_IGHJ1*01 S102A/S103P/S104F/H111F (APFF) & L6_IGKJ1*01 S31F (Fab, V domains shown)
VH: B1 VH
VL: B2 VL with M31F
notes: Fab made in E. coli; The constant parts (CH1 with His6 and Flag tags from plasmid A, kappa CL from plasmid C) are not added here; also called APFF & S31F
B5: Fab VH1-46_IGHD6-6*01_IGHJ1*01 S102A/S103P/S104F/H111F (APFF) & L6_IGKJ1*01 S30R (Fab, V domains shown)
VH: B1 VH
VL: B2 VL with S30R, M31S
notes: Fab made in E. coli; The constant parts (CH1 with His6 and Flag tags from plasmid A, kappa CL from plasmid C) are not added here; also called APFF & S30R
B6: Fab VH1-46_IGHD6-6*01_IGHJ1*01 S102A/S103P/S104F/H111F (APFF) & L6_IGKJ1*01 S31I (Fab, V domains shown)
VH: B1 VH
VL: B2 VL with M31I
notes: Fab made in E. coli; The constant parts (CH1 with His6 and Flag tags from plasmid A, kappa CL from plasmid C) are not added here; also called APFF & S31I
B7: Fab VH1-46_IGHD6-6*01_IGHJ1*01 S102A/S103P/S104F/H111F (APFF) & L6_IGKJ1*01 S31Q (Fab, V domains shown)
VH: B1 VH
VL: B2 VL with M31Q
notes: Fab made in E. coli; The constant parts (CH1 with His6 and Flag tags from plasmid A, kappa CL from plasmid C) are not added here; also called APFF & S31Q
B8: Fab VH1-46_IGHD6-6*01_IGHJ1*01 S102A/S103P/S104F/H111F (APFF) & L6_IGKJ1*01 S31K (Fab, V domains shown)
VH: B1 VH
VL: B2 VL with M31K
notes: Fab made in E. coli; The constant parts (CH1 with His6 and Flag tags from plasmid A, kappa CL from plasmid C) are not added here; also called APFF & S31K
B9: Fab VH1-46_IGHD6-6*01_IGHJ1*01 S102A/S103P/S104F/H111F (APFF) & L6_IGKJ1*01 S31D (Fab, V domains shown)
VH: B1 VH
VL: B2 VL with M31D
notes: Fab made in E. coli; The constant parts (CH1 with His6 and Flag tags from plasmid A, kappa CL from plasmid C) are not added here; also called APFF & S31D
B10: Fab VH1-46_IGHD6-6*01_IGHJ1*01 S102A/S103P/S104F/H111F (APFF) & L6_IGKJ1*01 S31P (Fab, V domains shown)
VH: B1 VH
VL: B2 VL with M31P
notes: Fab made in E. coli; The constant parts (CH1 with His6 and Flag tags from plasmid A, kappa CL from plasmid C) are not added here; also called APFF & S31P
B11: Fab VH1-46_IGHD6-6*01_IGHJ1*01 S102A/S103P/S104F/H111F (APFF) & L6_IGKJ1*01 S30P (Fab, V domains shown)
VH: B1 VH
VL: B2 VL with S30P, M31S
notes: Fab made in E. coli; The constant parts (CH1 with His6 and Flag tags from plasmid A, kappa CL from plasmid C) are not added here; also called APFF & S30P
B12: Fab VH1-46_IGHD6-6*01_IGHJ1*01 S102A/S103P/S104F/H111F (APFF) & L6_IGKJ1*01 S30Q (Fab, V domains shown)
VH: B1 VH
VL: B2 VL with S30Q, M31S
notes: Fab made in E. coli; The constant parts (CH1 with His6 and Flag tags from plasmid A, kappa CL from plasmid C) are not added here; also called APFF & S30Q
B13: Fab VH1-46_IGHD6-6*01_IGHJ1*01 S102A/S103P/S104F/H111F (APFF) & L6_IGKJ1*01 S31H (Fab, V domains shown)
VH: B1 VH
VL: B2 VL with M31H
notes: Fab made in E. coli; The constant parts (CH1 with His6 and Flag tags from plasmid A, kappa CL from plasmid C) are not added here; also called APFF & S31H
B14: Fab VH1-46_IGHD6-6*01_IGHJ1*01 S102A/S103P/S104F/H111F (APFF) & L6_IGKJ1*01 S30G (Fab, V domains shown)
VH: B1 VH
VL: B2 VL with S30G, M31S
notes: Fab made in E. coli; The constant parts (CH1 with His6 and Flag tags from plasmid A, kappa CL from plasmid C) are not added here; also called APFF & S30G
B15: Fab VH1-46_IGHD6-6*01_IGHJ1*01 S102A/S103P/S104F/H111F (APFF) & L6_IGKJ1*01 S31R (Fab, V domains shown)
VH: B1 VH
VL: B2 VL with M31R
notes: Fab made in E. coli; The constant parts (CH1 with His6 and Flag tags from plasmid A, kappa CL from plasmid C) are not added here; also called APFF & S31R
B16: Fab VH1-46_IGHD6-6*01_IGHJ1*01 S102A/S103P/S104F/H111F (APFF) & L6_IGKJ1*01 S30A (Fab, V domains shown)
VH: B1 VH
VL: B2 VL with S30A, M31S
notes: Fab made in E. coli; The constant parts (CH1 with His6 and Flag tags from plasmid A, kappa CL from plasmid C) are not added here; also called APFF & S30A
B17: Fab VH1-46_IGHD6-6*01_IGHJ1*01 S102A/S103P/S104F/H111F (APFF) & L6_IGKJ1*01 S30V (Fab, V domains shown)
VH: B1 VH
VL: B2 VL with S30V, M31S
notes: Fab made in E. coli; The constant parts (CH1 with His6 and Flag tags from plasmid A, kappa CL from plasmid C) are not added here; also called APFF & S30V
B18: Fab VH1-46_IGHD6-6*01_IGHJ1*01 S102A/S103P/S104F/H111F (APFF) & L6_IGKJ1*01 S31N (Fab, V domains shown)
VH: B1 VH
VL: B2 VL with M31N
notes: Fab made in E. coli; The constant parts (CH1 with His6 and Flag tags from plasmid A, kappa CL from plasmid C) are not added here; also called APFF & S31N
B19: Fab VH1-46_IGHD6-6*01_IGHJ1*01 S102A/S103P/S104F/H111F (APFF) & L6_IGKJ1*01 S31V (Fab, V domains shown)
VH: B1 VH
VL: B2 VL with M31V
notes: Fab made in E. coli; The constant parts (CH1 with His6 and Flag tags from plasmid A, kappa CL from plasmid C) are not added here; also called APFF & S31V
B20: Fab VH1-46_IGHD6-6*01_IGHJ1*01 S102A/S103P/S104F/H111F (APFF) & L6_IGKJ1*01 S30N (Fab, V domains shown)
VH: B1 VH
VL: B2 VL with S30N, M31S
notes: Fab made in E. coli; The constant parts (CH1 with His6 and Flag tags from plasmid A, kappa CL from plasmid C) are not added here; also called APFF & S30N
B21: Fab VH1-46_IGHD6-6*01_IGHJ1*01 S102A/S103P/S104F/H111F (APFF) & L6_IGKJ1*01 S31A (Fab, V domains shown)
VH: B1 VH
VL: B2 VL with M31A
notes: Fab made in E. coli; The constant parts (CH1 with His6 and Flag tags from plasmid A, kappa CL from plasmid C) are not added here; also called APFF & S31A

Biological target: T1, Recombinant Human DLL4 (delta-like protein 4) (human, UniProt Q9NR61 27-524)
T1 construct: Bought recombinant human DLL4 (R&D Systems Cat#1506-D4/CF); also called rHuman DLL4
Assay: ECL (MSD) multispot binding assay, antigen spotted on plate, Fab in solution;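 also: purified Fab incubated 1 h at 20 °C, detected via TAG-labelled antibody electrochemiluminescence, antigen spot compared with the blank in the same well, ratio at least 4 counted as hit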
Description: An 150 μl aliquot of 1% Bovine Serum Albumin (BSA) in Tris-buffered Saline Tween (TBST) was added to each well and allowed to incubate for 30 min at 20° C. followed by washing and tap drying to completely remove any residual solution. Subsequently, a 12.5 μl aliquot of 1% BSA TBST was added to each well followed by the addition of a 12.5 μl aliquot of a purified Fab. The plate was sealed and incubated for 1 hour at 20° C. with shaking
TAG-detection antibody at 25 μl was added to each well and allowed to incubate for 1 hour at 20° C. with shaking. Finally, 15 μl of Read Buffer P with Surfactant (Cat # R92PC-1, Meso Scale Discovery) was added to each well. The electrochemiluminescence was measured using a Sector Imager 2400 (Meso Scale Discovery). Data was analyzed by comparing the ECL signals for an antigen to the blank of each well. A signal to blank ratio of 4 or more was considered a “Hit” Fab.

Signal/Blank | ECL signal | Binder
389 | – | B1
378 | – | B2
576 | 191000 | B3
459 | – | B4
682 | 189000 | B5
541 | – | B6
406 | 165000 | B7
351 | 179000 | B8
313 | – | B9
156 | – | B10
4.2 | 1260 | B11
602 | 197000 | B12
838 | – | B13
506 | 178000 | B14
558 | 166000 | B15
1010 | 187000 | B16
497 | 141000 | B17
605 | 178000 | B18
511 | – | B19
497 | 175000 | B20
882 | – | B21
